In IntAct's records for PubMed 25910212:

B1: U4/U6 small nuclear ribonucleoprotein Prp31 (Homo sapiens), Q8WWY3 (parent)
chain: MSLADELLADLEEAAEEEEGGSYGEEEEEPAIEDVQEETQLDLSGDSVKTIAKLWDSKMFAEIMMKIEEYISKQAKASEVMGPVEAAPEYRVIVDANNLTVEIENELNIIHKFIRDKYSKRFPELESLVPNALDYIRTVKELGNSLDKCKNNENLQQILTNATIMVVSVTASTTQGQQLSEEELERLEEACDMALELNASKHRIYEYVESRMSFIAPNLSIIIGASTAAKIMGVAGGLTNLSKMPACNIMLLGAQRKTLSGFSSTSVLPHTGYIYHSDIVQSLPPDLRRKAARLVAAKCTLAARVDSFHESTEGKVGYELKDEIERKFDKWQEPPPVKQVKPLPAPLDGQRKKRGGRRYRKMKERLGLTEIRKQANRMSFGEIEEDAYQEDLGFSLGHLGKSGSGRVRQTQVNEATKARISKTLQRTLQKQSVVYGGKSTIRDRSSGTASSVAFTPLQGLEIVNPQAAEKKVAEANQKYFSSMAEFLKVKGEKSGLMST
partner: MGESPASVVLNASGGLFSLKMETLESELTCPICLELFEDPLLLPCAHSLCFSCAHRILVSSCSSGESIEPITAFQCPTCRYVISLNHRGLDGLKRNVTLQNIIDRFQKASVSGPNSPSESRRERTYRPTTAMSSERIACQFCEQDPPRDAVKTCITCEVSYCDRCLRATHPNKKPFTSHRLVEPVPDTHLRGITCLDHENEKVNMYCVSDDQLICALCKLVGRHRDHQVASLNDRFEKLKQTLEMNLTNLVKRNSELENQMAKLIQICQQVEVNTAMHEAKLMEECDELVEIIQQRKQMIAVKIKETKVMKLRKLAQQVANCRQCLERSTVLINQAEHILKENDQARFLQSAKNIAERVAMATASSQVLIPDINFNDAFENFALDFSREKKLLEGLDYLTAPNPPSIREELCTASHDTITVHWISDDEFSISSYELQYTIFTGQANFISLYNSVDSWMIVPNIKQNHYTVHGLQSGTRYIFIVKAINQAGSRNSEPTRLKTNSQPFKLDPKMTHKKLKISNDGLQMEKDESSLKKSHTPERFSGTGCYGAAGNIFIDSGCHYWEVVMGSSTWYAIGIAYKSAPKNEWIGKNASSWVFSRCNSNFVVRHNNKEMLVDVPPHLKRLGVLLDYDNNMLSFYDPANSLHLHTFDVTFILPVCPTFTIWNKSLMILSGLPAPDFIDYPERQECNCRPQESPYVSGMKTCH
B2: U4/U6 small nuclear ribonucleoprotein Prp31 (Homo sapiens), Q8WWY3 (parent)
chain: B1 chain
partner: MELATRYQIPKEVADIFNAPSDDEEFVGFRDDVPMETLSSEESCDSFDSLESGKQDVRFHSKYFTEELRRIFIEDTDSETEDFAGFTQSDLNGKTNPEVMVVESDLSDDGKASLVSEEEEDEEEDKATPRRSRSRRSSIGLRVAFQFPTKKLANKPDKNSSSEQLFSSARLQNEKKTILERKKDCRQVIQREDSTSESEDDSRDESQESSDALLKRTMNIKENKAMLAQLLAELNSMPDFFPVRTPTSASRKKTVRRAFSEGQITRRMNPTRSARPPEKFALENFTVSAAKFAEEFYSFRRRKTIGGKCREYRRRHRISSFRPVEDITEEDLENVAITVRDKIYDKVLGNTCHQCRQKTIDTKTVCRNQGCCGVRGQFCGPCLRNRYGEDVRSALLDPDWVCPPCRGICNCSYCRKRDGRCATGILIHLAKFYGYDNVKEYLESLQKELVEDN
B3: Progranulin (Homo sapiens), P28799 (parent)
chain: MWTLVSWVALTAGLVAGTRCPDGQFCPVACCLDPGGASYSCCRPLLDKWPTTLSRHLGGPCQVDAHCSAGHSCIFTVSGTSSCCPFPEAVACGDGHHCCPRGFHCSADGRSCFQRSGNNSVGAIQCPDSQFECPDFSTCCVMVDGSWGCCPMPQASCCEDRVHCCPHGAFCDLVHTRCITPTGTHPLAKKLPAQRTNRAVALSSSVMCPDARSRCPDGSTCCELPSGKYGCCPMPNATCCSDHLHCCPQDTVCDLIQSKCLSKENATTDLLTKLPAHTVGDVKCDMEVSCPDGYTCCRLQSGAWGCCPFTQAVCCEDHIHCCPAGFTCDTQKGTCEQGPHQVPWMEKAPAHLSLPDPQALKRDVPCDNVSSCPSSDTCCQLTSGEWGCCPIPEAVCCSDHQHCCPQGYTCVAEGQCQRGSEIVAGLEKMPARRASLSHPRDIGCDQHTSCPVGQTCCPSLGGSWACCQLPHAVCCEDRQHCCPAGYTCNVKARSCEKEVVSAQPATFLARSPHVGVKDVECGEGHFCHDNQTCCRDNRQGWACCPYRQGVCCADRRHCCPAGFRCAARGTKCLRREAPRWDAPLRDPALRQLL
partner: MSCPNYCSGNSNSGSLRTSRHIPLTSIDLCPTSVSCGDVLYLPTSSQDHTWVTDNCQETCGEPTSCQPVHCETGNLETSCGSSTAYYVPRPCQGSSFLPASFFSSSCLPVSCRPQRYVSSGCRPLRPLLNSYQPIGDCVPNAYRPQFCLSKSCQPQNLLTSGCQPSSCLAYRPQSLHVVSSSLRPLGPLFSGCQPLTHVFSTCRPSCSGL
B4: Chorion-specific transcription factor GCMb (Homo sapiens), O75603 (parent)
chain: MPAAAVQEAVGVCSYGMQLSWDINDPQMPQELALFDQFREWPDGYVRFIYSSDEKKAQRHLSGWAMRNTNNHNGHILKKSCLGVVVCTQACTLPDGSRLQLRPAICDKARLKQQKKACPNCHSALELIPCRGHSGYPVTNFWRLDGNAIFFQAKGVHDHPRPESKSETEARRSAIKRQMASFYQPQKKRIRESEAEENQDSSGHFSNIPPLENPEDFDIVTETSFPIPGQPCPSFPKSDVYKATCDLATFQGDKMPPFQKYSSPRIYLPRPPCSYELANPGYTNSSPYPTLYKDSTSIPNDTDWVHLNTLQCNVNSYSSYERSFDFTNKQHGWKPALGKPSLVERTNHGQFQAMATRPYYNPELPCRYLTTPPPGAPALQTVITTTTKVSYQAYQPPAMKYSDSVREVKSLSSCNYAPEDTGMSVYPEPWGPPVTVTRAASPSGPPPMKIAGDCRAIRPTVAIPHEPVSSRTDEAETWDVCLSGLGSAVSYSDRVGPFFTYNNEDF
partner: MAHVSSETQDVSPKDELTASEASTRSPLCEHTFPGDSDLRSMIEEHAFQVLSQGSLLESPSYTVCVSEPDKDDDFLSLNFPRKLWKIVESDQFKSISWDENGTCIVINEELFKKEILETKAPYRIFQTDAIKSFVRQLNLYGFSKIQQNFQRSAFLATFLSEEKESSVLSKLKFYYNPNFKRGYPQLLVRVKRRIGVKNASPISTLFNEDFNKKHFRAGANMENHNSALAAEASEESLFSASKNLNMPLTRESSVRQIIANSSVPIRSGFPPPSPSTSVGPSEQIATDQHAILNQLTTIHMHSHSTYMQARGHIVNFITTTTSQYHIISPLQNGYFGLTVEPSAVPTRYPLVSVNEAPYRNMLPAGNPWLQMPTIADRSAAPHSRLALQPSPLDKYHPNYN
B5: ATP synthase mitochondrial F1 complex assembly factor 2 (Homo sapiens), Q8N5M1 (parent)
chain: MWRSCLRLRDGGRRLLNRPAGGPSASMSPGPTIPSPARAYAPPTERKRFYQNVSITQGEGGFEINLDHRKLKTPQAKLFTVPSEALAIAVATEWDSQQDTIKYYTMHLTTLCNTSLDNPTQRNKDQLIRAAVKFLDTDTICYRVEEPETLVELQRNEWDPIIEWAEKRYGVEISSSTSIMGPSIPAKTREVLVSHLASYNTWALQGIEFVAAQLKSMVLTLGLIDLRLTVEQAVLLSRLEEEYQIQKWGNIEWAHDYELQELRARTAAGTLFIHLCSESTTVKHKLLKE
partner: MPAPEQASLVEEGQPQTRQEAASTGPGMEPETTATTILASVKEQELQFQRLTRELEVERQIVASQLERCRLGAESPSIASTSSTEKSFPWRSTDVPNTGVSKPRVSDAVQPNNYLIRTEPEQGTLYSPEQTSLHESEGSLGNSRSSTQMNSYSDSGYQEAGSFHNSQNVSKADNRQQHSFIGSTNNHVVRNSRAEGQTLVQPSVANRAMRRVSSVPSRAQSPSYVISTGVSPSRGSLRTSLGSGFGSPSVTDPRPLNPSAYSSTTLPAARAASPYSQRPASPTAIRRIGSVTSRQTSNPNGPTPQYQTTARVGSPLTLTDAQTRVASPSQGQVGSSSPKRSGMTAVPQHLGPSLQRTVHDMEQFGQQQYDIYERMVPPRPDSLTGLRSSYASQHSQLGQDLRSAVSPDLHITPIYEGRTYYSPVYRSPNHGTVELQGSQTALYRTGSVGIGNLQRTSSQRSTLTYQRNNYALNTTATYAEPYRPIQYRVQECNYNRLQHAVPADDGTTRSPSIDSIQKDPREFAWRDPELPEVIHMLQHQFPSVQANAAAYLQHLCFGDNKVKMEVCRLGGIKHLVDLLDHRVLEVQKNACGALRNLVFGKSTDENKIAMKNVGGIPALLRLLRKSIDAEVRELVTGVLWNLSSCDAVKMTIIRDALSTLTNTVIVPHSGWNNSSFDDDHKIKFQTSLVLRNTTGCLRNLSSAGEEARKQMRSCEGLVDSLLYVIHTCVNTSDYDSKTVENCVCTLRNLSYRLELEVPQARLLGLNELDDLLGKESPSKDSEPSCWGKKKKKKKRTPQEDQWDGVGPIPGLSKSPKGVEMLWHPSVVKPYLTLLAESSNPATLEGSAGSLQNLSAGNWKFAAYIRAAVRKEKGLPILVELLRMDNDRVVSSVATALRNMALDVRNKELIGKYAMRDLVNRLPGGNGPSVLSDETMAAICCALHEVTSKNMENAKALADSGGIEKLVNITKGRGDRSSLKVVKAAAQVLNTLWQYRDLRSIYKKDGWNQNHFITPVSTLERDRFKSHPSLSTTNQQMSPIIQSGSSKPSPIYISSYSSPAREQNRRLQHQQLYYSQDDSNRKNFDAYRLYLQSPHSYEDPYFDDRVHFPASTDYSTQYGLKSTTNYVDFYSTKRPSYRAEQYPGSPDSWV

Variants of: B1
Conditions: with MID2, Q9UJV3-2

Row | effect of a mutation on the interaction | Variant
1 | with no effect | L107V

Variants of: B2
Conditions: with CDCA7L

Row | effect of a mutation on the interaction | Variant
2 | with no effect | L107V

Variants of: B3
Conditions: with kr261_human KRTAP26-1, Q6PEX3

Row | effect of a mutation on the interaction | Variant
3 | disrupting interaction strength | A9D
4 | with no effect | P451L
5 | with no effect | P248L
6 | disrupting interaction strength | R432C

Variants of: B4
Conditions: with hsfy1_human HSFY1, Q96LI6

Row | effect of a mutation on the interaction | Variant
7 | disrupting interaction strength | R47L
8 | disrupting interaction strength | G63S
9 | with no effect | G203S

Variants of: B5
Conditions: with PKP4, Q99569-2

Row | effect of a mutation on the interaction | Variant
10 | disrupting interaction strength | W94R
